Biological target: T1, CGEN-CL1 peptide FYFWMNGDRIDSLLENDRQQT [SEQ ID NO: 1] (human, acetylated at its N-terminus; amidated at its C-terminus)
T1 construct: Made by solid-phase synthesis (Pepscan); molecular weight 2690.1
T1 peptide: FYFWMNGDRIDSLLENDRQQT
Test: SPR competition (BIAcore), peptides preincubated 30 min at 10 uM each, injected over immobilized clusterin
Experimental: Peptide-protein interaction was analyzed using surface plasmon resonance. Analysis of the interaction between CGEN-CL1 [SEQ ID NO:1] and recombinant human clusterin (Biovendor, Modrice, Czech republic cat no: RD172034100) was conducted using the BIAcore biosensor (Pharmacia Biosensor, Uppsala, Sweden). Clusterin was immobilized directly to a CM5 sensor chip (2000 resonance units (RU)). Solution containing either 10 μM of CGEN-CL1 [SEQ ID NO:1] peptide or a mixture of CGEN-CL1 and its partner helix (SEQ ID NO:5), 10 μM each, preincubated for 30 minutes at room temperature, was injected to the BIAcore. As a background, the solutions were also injected onto an empty flow cell with no immobilized ligand and the binding levels achieved were subtracted. Data was analyzed using BIAevaluation software.

B1: partner helix peptide RLTRKYNELLKSYQWKMLNTSS [SEQ ID NO: 5] (peptide)
peptide: Ac-RLTRKYNELLKSYQWKMLNTSS-NH2
notes: Made by solid-phase synthesis (Pepscan); molecular weight 2760.2; also called helix partner; counterpart helix peptide
Does B1 bind?
Result: binds

— patent US20100322938A1 (COMPUGEN, published 2010)
